# Measured values taken from patent publication US20140087995A1 (published 2014).
# Numbered stars: 1 amine (or outer) side, 2 acyl side, 3 side chain; on linkers, the order of the positions; unused ones are H or OH. Bridge positions count the residues as written; N and C are the ends. Side chains are listed from the residue outwards. Ends that are not written are not given here. * marks the point of attachment. C20 diacid = O=C(O)CCCCCCCCCCCCCCCCCCC(=O)*; γGlu = O=C(O)[C@H](CCC(=O)[*:2])N[*:1]
# T1: human calcitonin receptor (human, UniProt P30988 25-474)
# T1 sequence (looked up): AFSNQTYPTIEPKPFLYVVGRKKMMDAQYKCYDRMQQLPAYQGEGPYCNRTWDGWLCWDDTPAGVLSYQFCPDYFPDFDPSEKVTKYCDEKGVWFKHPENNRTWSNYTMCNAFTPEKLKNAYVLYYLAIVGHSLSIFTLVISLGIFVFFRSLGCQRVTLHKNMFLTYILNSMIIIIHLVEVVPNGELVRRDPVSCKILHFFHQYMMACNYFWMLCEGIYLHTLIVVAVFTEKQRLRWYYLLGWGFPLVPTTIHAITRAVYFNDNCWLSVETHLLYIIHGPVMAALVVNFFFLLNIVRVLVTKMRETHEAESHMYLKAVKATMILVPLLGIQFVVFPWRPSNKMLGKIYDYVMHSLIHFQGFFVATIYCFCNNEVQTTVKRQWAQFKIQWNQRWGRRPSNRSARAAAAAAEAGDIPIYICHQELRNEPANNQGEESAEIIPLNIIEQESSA
# Target: T1, human calcitonin receptor
# Assay: cell-based or functional assay
row,hCTR funct. EC50 (pM),Binder
1,8660,K([γGlu-γGlu-C20 diacid])CNTATCATQRLANFLRHSSPNFGAIPSSTPVGPRTY-NH2 (disulfide 2-7; N-terminus assumed; SMILES CC[C@H](C)[C@H](NC(=O)[C@H](C)NC(=O)CNC(=O)[C@H](Cc1ccccc1)NC(=O)[C@H](CC(N)=O)NC(=O)[C@@H]1CCCN1C(=O)[C@H](CO)NC(=O)[C@H](CO)NC(=O)[C@H](Cc1c[nH]cn1)NC(=O)[C@H](CCCNC(=N)N)NC(=O)[C@H](CC(C)C)NC(=O)[C@H](Cc1ccccc1)NC(=O)[C@H](CC(N)=O)NC(=O)[C@H](C)NC(=O)[C@H](CC(C)C)NC(=O)[C@H](CCCNC(=N)N)NC(=O)[C@H](CCC(N)=O)NC(=O)[C@@H](NC(=O)[C@H](C)NC(=O)[C@@H]1CSSC[C@H](NC(=O)[C@@H](N)CCCCNC(=O)CC[C@H](NC(=O)CC[C@H](NC(=O)CCCCCCCCCCCCCCCCCCC(=O)O)C(=O)O)C(=O)O)C(=O)N[C@@H](CC(N)=O)C(=O)N[C@@H]([C@@H](C)O)C(=O)N[C@@H](C)C(=O)N[C@@H]([C@@H](C)O)C(=O)N1)[C@@H](C)O)C(=O)N1CCC[C@H]1C(=O)N[C@@H](CO)C(=O)N[C@@H](CO)C(=O)N[C@H](C(=O)N1CCC[C@H]1C(=O)N[C@H](C(=O)NCC(=O)N1CCC[C@H]1C(=O)N[C@@H](CCCNC(=N)N)C(=O)N[C@H](C(=O)N[C@@H](Cc1ccc(O)cc1)C(N)=O)[C@@H](C)O)C(C)C)[C@@H](C)O)
2,887,"K([γGlu-γGlu-C20 diacid])CNTATCATQRLASFLRHSSPNFGAIPSSTNVGPETY-NH2 (disulfide 2-7; N-terminus assumed; SMILES CC[C@H](C)[C@H](NC(=O)[C@H](C)NC(=O)CNC(=O)[C@H](Cc1ccccc1)NC(=O)[C@H](CC(N)=O)NC(=O)[C@@H]1CCCN1C(=O)[C@H](CO)NC(=O)[C@H](CO)NC(=O)[C@H](Cc1c[nH]cn1)NC(=O)[C@H](CCCNC(=N)N)NC(=O)[C@H](CC(C)C)NC(=O)[C@H](Cc1ccccc1)NC(=O)[C@H](CO)NC(=O)[C@H](C)NC(=O)[C@H](CC(C)C)NC(=O)[C@H](CCCNC(=N)N)NC(=O)[C@H](CCC(N)=O)NC(=O)[C@@H](NC(=O)[C@H](C)NC(=O)[C@@H]1CSSC[C@H](NC(=O)[C@@H](N)CCCCNC(=O)CC[C@H](NC(=O)CC[C@H](NC(=O)CCCCCCCCCCCCCCCCCCC(=O)O)C(=O)O)C(=O)O)C(=O)N[C@@H](CC(N)=O)C(=O)N[C@@H]([C@@H](C)O)C(=O)N[C@@H](C)C(=O)N[C@@H]([C@@H](C)O)C(=O)N1)[C@@H](C)O)C(=O)N1CCC[C@H]1C(=O)N[C@@H](CO)C(=O)N[C@@H](CO)C(=O)N[C@H](C(=O)N[C@@H](CC(N)=O)C(=O)N[C@H](C(=O)NCC(=O)N1CCC[C@H]1C(=O)N[C@@H](CCC(=O)O)C(=O)N[C@H](C(=O)N[C@@H](Cc1ccc(O)cc1)C(N)=O)[C@@H](C)O)C(C)C)[C@@H](C)O, also called compound 120)"
3,2830,K([γGlu-γGlu-C20 diacid])CNTATCATQRLAEFLRHSSPNFGAIPSSTNVGPHTY-NH2 (disulfide 2-7 (inferred))
4,2380,"K([γGlu-γGlu-C20 diacid])CNTATCATQRLAHFLRHSSPNFGAIPSSTNVGSNTY-NH2 (disulfide 2-7; N-terminus assumed; SMILES CC[C@H](C)[C@H](NC(=O)[C@H](C)NC(=O)CNC(=O)[C@H](Cc1ccccc1)NC(=O)[C@H](CC(N)=O)NC(=O)[C@@H]1CCCN1C(=O)[C@H](CO)NC(=O)[C@H](CO)NC(=O)[C@H](Cc1c[nH]cn1)NC(=O)[C@H](CCCNC(=N)N)NC(=O)[C@H](CC(C)C)NC(=O)[C@H](Cc1ccccc1)NC(=O)[C@H](Cc1c[nH]cn1)NC(=O)[C@H](C)NC(=O)[C@H](CC(C)C)NC(=O)[C@H](CCCNC(=N)N)NC(=O)[C@H](CCC(N)=O)NC(=O)[C@@H](NC(=O)[C@H](C)NC(=O)[C@@H]1CSSC[C@H](NC(=O)[C@@H](N)CCCCNC(=O)CC[C@H](NC(=O)CC[C@H](NC(=O)CCCCCCCCCCCCCCCCCCC(=O)O)C(=O)O)C(=O)O)C(=O)N[C@@H](CC(N)=O)C(=O)N[C@@H]([C@@H](C)O)C(=O)N[C@@H](C)C(=O)N[C@@H]([C@@H](C)O)C(=O)N1)[C@@H](C)O)C(=O)N1CCC[C@H]1C(=O)N[C@@H](CO)C(=O)N[C@@H](CO)C(=O)N[C@H](C(=O)N[C@@H](CC(N)=O)C(=O)N[C@H](C(=O)NCC(=O)N[C@@H](CO)C(=O)N[C@@H](CC(N)=O)C(=O)N[C@H](C(=O)N[C@@H](Cc1ccc(O)cc1)C(N)=O)[C@@H](C)O)C(C)C)[C@@H](C)O, also called compound 92)"
5,7050,K([γGlu-γGlu-C20 diacid])CNTATCATQRLAEFLRHSSPNFGAIPSSTNVGHETY-NH2 (disulfide 2-7; N-terminus assumed; SMILES CC[C@H](C)[C@H](NC(=O)[C@H](C)NC(=O)CNC(=O)[C@H](Cc1ccccc1)NC(=O)[C@H](CC(N)=O)NC(=O)[C@@H]1CCCN1C(=O)[C@H](CO)NC(=O)[C@H](CO)NC(=O)[C@H](Cc1c[nH]cn1)NC(=O)[C@H](CCCNC(=N)N)NC(=O)[C@H](CC(C)C)NC(=O)[C@H](Cc1ccccc1)NC(=O)[C@H](CCC(=O)O)NC(=O)[C@H](C)NC(=O)[C@H](CC(C)C)NC(=O)[C@H](CCCNC(=N)N)NC(=O)[C@H](CCC(N)=O)NC(=O)[C@@H](NC(=O)[C@H](C)NC(=O)[C@@H]1CSSC[C@H](NC(=O)[C@@H](N)CCCCNC(=O)CC[C@H](NC(=O)CC[C@H](NC(=O)CCCCCCCCCCCCCCCCCCC(=O)O)C(=O)O)C(=O)O)C(=O)N[C@@H](CC(N)=O)C(=O)N[C@@H]([C@@H](C)O)C(=O)N[C@@H](C)C(=O)N[C@@H]([C@@H](C)O)C(=O)N1)[C@@H](C)O)C(=O)N1CCC[C@H]1C(=O)N[C@@H](CO)C(=O)N[C@@H](CO)C(=O)N[C@H](C(=O)N[C@@H](CC(N)=O)C(=O)N[C@H](C(=O)NCC(=O)N[C@@H](Cc1c[nH]cn1)C(=O)N[C@@H](CCC(=O)O)C(=O)N[C@H](C(=O)N[C@@H](Cc1ccc(O)cc1)C(N)=O)[C@@H](C)O)C(C)C)[C@@H](C)O)
6,843,K([γGlu-γGlu-C20 diacid])CNTATCATQRLADFLRHSSPNFGAIPSSTNVGPETY-NH2 (disulfide 2-7)
7,102,K([γGlu-γGlu-C20 diacid])CNTATCATQRLAEFLRHSSPNFGAIPSSTNVGPETP-NH2 (disulfide 2-7; N-terminus assumed; SMILES CC[C@H](C)[C@H](NC(=O)[C@H](C)NC(=O)CNC(=O)[C@H](Cc1ccccc1)NC(=O)[C@H](CC(N)=O)NC(=O)[C@@H]1CCCN1C(=O)[C@H](CO)NC(=O)[C@H](CO)NC(=O)[C@H](Cc1c[nH]cn1)NC(=O)[C@H](CCCNC(=N)N)NC(=O)[C@H](CC(C)C)NC(=O)[C@H](Cc1ccccc1)NC(=O)[C@H](CCC(=O)O)NC(=O)[C@H](C)NC(=O)[C@H](CC(C)C)NC(=O)[C@H](CCCNC(=N)N)NC(=O)[C@H](CCC(N)=O)NC(=O)[C@@H](NC(=O)[C@H](C)NC(=O)[C@@H]1CSSC[C@H](NC(=O)[C@@H](N)CCCCNC(=O)CC[C@H](NC(=O)CC[C@H](NC(=O)CCCCCCCCCCCCCCCCCCC(=O)O)C(=O)O)C(=O)O)C(=O)N[C@@H](CC(N)=O)C(=O)N[C@@H]([C@@H](C)O)C(=O)N[C@@H](C)C(=O)N[C@@H]([C@@H](C)O)C(=O)N1)[C@@H](C)O)C(=O)N1CCC[C@H]1C(=O)N[C@@H](CO)C(=O)N[C@@H](CO)C(=O)N[C@H](C(=O)N[C@@H](CC(N)=O)C(=O)N[C@H](C(=O)NCC(=O)N1CCC[C@H]1C(=O)N[C@@H](CCC(=O)O)C(=O)N[C@H](C(=O)N1CCC[C@H]1C(N)=O)[C@@H](C)O)C(C)C)[C@@H](C)O)
8,2140,K([γGlu-γGlu-C20 diacid])CNTATCATQRLAEFLRHSSPNFGAIPSSTNVGPNTF-NH2 (disulfide 2-7; N-terminus assumed; SMILES CC[C@H](C)[C@H](NC(=O)[C@H](C)NC(=O)CNC(=O)[C@H](Cc1ccccc1)NC(=O)[C@H](CC(N)=O)NC(=O)[C@@H]1CCCN1C(=O)[C@H](CO)NC(=O)[C@H](CO)NC(=O)[C@H](Cc1c[nH]cn1)NC(=O)[C@H](CCCNC(=N)N)NC(=O)[C@H](CC(C)C)NC(=O)[C@H](Cc1ccccc1)NC(=O)[C@H](CCC(=O)O)NC(=O)[C@H](C)NC(=O)[C@H](CC(C)C)NC(=O)[C@H](CCCNC(=N)N)NC(=O)[C@H](CCC(N)=O)NC(=O)[C@@H](NC(=O)[C@H](C)NC(=O)[C@@H]1CSSC[C@H](NC(=O)[C@@H](N)CCCCNC(=O)CC[C@H](NC(=O)CC[C@H](NC(=O)CCCCCCCCCCCCCCCCCCC(=O)O)C(=O)O)C(=O)O)C(=O)N[C@@H](CC(N)=O)C(=O)N[C@@H]([C@@H](C)O)C(=O)N[C@@H](C)C(=O)N[C@@H]([C@@H](C)O)C(=O)N1)[C@@H](C)O)C(=O)N1CCC[C@H]1C(=O)N[C@@H](CO)C(=O)N[C@@H](CO)C(=O)N[C@H](C(=O)N[C@@H](CC(N)=O)C(=O)N[C@H](C(=O)NCC(=O)N1CCC[C@H]1C(=O)N[C@@H](CC(N)=O)C(=O)N[C@H](C(=O)N[C@@H](Cc1ccccc1)C(N)=O)[C@@H](C)O)C(C)C)[C@@H](C)O)
